Measurements reported in publication PMC5814829.
Changes are numbered by the printed parent chain. Where two headings read alike, the source gives them in different places.

Columns and labels:
Assay in all cases: fluorescence anisotropy
[1] = target: T1, ScPif1p (237-780) (Saccharomyces cerevisiae, UniProt P07271 237-780)
T1 sequence: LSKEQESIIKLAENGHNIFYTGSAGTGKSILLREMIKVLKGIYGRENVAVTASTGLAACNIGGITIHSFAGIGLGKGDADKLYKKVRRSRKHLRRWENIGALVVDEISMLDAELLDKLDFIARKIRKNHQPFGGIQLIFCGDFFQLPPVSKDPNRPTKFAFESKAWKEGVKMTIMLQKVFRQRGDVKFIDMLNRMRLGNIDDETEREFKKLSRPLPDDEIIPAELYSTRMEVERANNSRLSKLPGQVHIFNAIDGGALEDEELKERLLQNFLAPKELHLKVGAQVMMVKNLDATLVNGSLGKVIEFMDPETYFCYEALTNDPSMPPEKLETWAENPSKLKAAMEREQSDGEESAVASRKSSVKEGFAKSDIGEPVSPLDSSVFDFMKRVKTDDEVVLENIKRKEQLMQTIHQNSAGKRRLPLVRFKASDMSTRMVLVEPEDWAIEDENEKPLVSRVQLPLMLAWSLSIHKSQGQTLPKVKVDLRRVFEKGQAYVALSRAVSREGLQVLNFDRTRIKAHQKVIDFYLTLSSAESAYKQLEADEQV

[2] = target: T2, ScPif1p K363A (Saccharomyces cerevisiae, UniProt P07271 237-780, K363A)
T2 sequence: T1 sequence with K127A

[3] = target: T3, ScPif1p R594A/K595A (Saccharomyces cerevisiae, UniProt P07271 237-780, R594A;K595A)
T3 sequence: T1 sequence with R358A, K359A

[4] = target: T1, ScPif1p (237-780); remark: listed apart in the source
[5] = target: T4, ScPif1p R326C (Saccharomyces cerevisiae, UniProt P07271 237-780, R326C)
T4 sequence: T1 sequence with R90C

[6] = target: T1, ScPif1p (237-780); remark: listed apart in the source

B1: GR12 (ssDNA)
DNA: GTGTGTGTGGTG
[1]
  Kd: 7.8 nM
[2]
  Kd: 14.4 ± 1.3 nM
[3]
  Kd: 10.5 ± 3.5 nM
[4]
  Kd: 11.2 ± 2.1 nM
[5]
  Kd: 12.4 ± 2.1 nM

B2: F-G417 (structured_DNA)
DNA: AGGGTGGGTGGGTGGGT
[6]
  Kd: 25 ± 5.1 nM
[2]
  Kd: 43.9 ± 2.2 nM
[3]
  Kd: 72.9 ± 4.9 nM
[5]
  Kd: 105 ± 8.4 nM

B3: dsDNA16bp (dsDNA)
DNA 1: CTCTGCTCGACGGATT
DNA 2: AATCCGTCGAGCAGAG
[2]
  Kd: 72.3 ± 8.3 nM
[3]
  Kd: 78.9 ± 9.3 nM
[4]
  Kd: 81.3 ± 10.3 nM
[5]
  Kd: 78.3 ± 9.6 nM
